Measurements reported in patent US20150297742A1.

Tests used:
[1] = target: epidermal growth factor receptor (EGFR) (human) (UniProt P00533); experiment: 125I-labelled conjugate on EGFR-positive A431 cells, 37 C, gamma counting (membrane bound plus internalized)
[2] = target: epidermal growth factor receptor (EGFR) (human) (UniProt P00533); experiment: 125I-labelled conjugate on A431 cells, against unmodified matuzumab

Substance | % of the applied dose bound (% of applied dose per 10^6 cells) [1] | fold of the binding percentage of the unmodified mAb [2] [fold]
mAb-dPenetratin (matuzumab conjugated to dendritic tetravalent penetratin) (antibody) | 68 | 3
mAb-dTAT (matuzumab conjugated to dendritic tetravalent TAT (47-60)) (antibody) |  | 3
mAb-dSynB1 (matuzumab conjugated to dendritic tetravalent SynB1) (antibody) | 47 | 

The next lines start with the values.

% of the applied dose bound (% of applied dose per 10^6 cells) [1] | fold of the binding percentage of the unmodified mAb [2] [fold] | Substance
92 | 4.2 | mAb-dR9 (matuzumab conjugated to dendritic tetravalent R9) (antibody)
 | 3 | mAb-dMTS (matuzumab conjugated to dendritic tetravalent MTS) (antibody)
